Measured values from US20190194722, “METHOD” (Oxford Nanopore Technologies Ltd., published 2019).

B1: transposon 2 (dsDNA)
DNA 1: GTTTTCGCATTTATCGTGAAACGCTTTCGCGTTTTTCGTGCGCCGCTTCA
DNA 2: GATCTGAAGCGGCGCACGAAAAACGCGAAAGCGTTTCACGATAAATGCGAAAACTTTTTTTTTT
B2: MuA adapter (Example 2) (dsDNA)
DNA 1: B1 DNA 2
DNA 2: TGCTGATATTGCGTTTTCGCATTTATCGTGAAACGCTTTCGCGTTTTTCGTGCGCCGCTTCA

Tests used:
MuA transposase [1] = biological target: T1, MuA transposase (UniProt P07636 P07636:1-663); assay: MuA stays bound after transposition into PhiX174 at room temperature (no Bioanalyser peak); released at 75 C; 10 mM MgCl2, 110 mM NaCl, pH 8; details: tags: ThermoFisher Scientific; chain copies: 4; 3' overhang on bottom strand
Experimental: Transpososome 1 and transpososome 2 were each mixed to 50 nM with 1.5 ug of PhiX174 RFI DNA (New England Biolabs) in 25 mM Tris.HCl pH8, 110 mM NaCl and 10 mM MgCl₂ in a 30 ul reaction in a 0.2 ml PCR tube. Each reaction was incubated at room temperature for 2 minutes before being split […] to form 3 tubes of 10 uls for each. 1 tube of each transpososome was incubated at 75° C. for 5 minutes, 1 tube of each transpososome was left at room temperature for 5 minutes with nothing added. Hel308Mbu-E284C/S615C-STrEP(C) (1 uM) was added to the final tubes along with 10 mM of ATP (Sigma-Aldrich) and incubated at room temperature for 5 minutes. 1 ul of each reaction was then analysed on the Agilent 2100 Bioanalyser 12,000 bp setting, along with 1 ul of unmodified PhiX.

MuA transposase [2] = biological target: T1, MuA transposase; assay: MuA stays bound at room temperature; tagmentation peak only after 75 C; MgCl2 buffer; details: tags: ThermoFisher Scientific; chain copies: 4; 5' bottom strand flap, 12 nt 5' tail on top strand, 10 nt 3' tail on bottom strand
Experimental: A transposome complex was formed but addition of 1 ul of the MuA adapter, 4.5 ul of nuclease free water, 2 ul of 5× transposome buffer (125 mM Tris pH 8, 550 mM NaCl, 2.5 mM EDTA, 50% glycerol, 0.25% Triton-X100) and 2.5 ul of concentrated MuA transposase (Thermofisher). The mixture was then incubated at 30° C. for 1.5 hours.
A transposition reaction, containing 10 ul of 5× transposase buffer (125 mM Tris pH 8, 550 mM NaCl, 50 mM MgCl2), 5 ul transposome, 2.5 ug PhiX RFI (NEB) and nuclease free water to 50 ul, was then carried out at room temperature for 10 minutes. After 10 mins 6.25 ul of 100 mM rATP was added and the reaction was split into 5×11.25 ul. To sample (i) and (ii) 1.25 ul of nuclease free water was added; to sample (iii) 1.25 ul of Hel308Mbu-E284C-STrEP(C) (SEQ ID NO: 10 with mutation E284C with a streptavidin tag attached at its C terminus) was added; to sample (iv) 1.25 ul of T4 Dda—(E94C/F98W/C109A/C136A/A360C) (SEQ ID NO: 97 with mutations E94C/F98W/C109A/C136A/A360C and then (ΔM1)G1G2 (where (ΔM1)G1G2=deletion of M1 and then addition G1 and G2), was added; to sample (v) 1.25 ul of UvrD Eco-(E117C/M380C)-STrEP (SEQ ID NO: 122 with mutations E177C/M380C with a streptavidin tag attached at the C terminus). Samples (i), (iii), (iv) and (v) were then left at room temperature for 10 mins while sample (ii) was left at 75° C. for 10 mins. […]

T1 sequence (P07636 whole entry, one chain of several): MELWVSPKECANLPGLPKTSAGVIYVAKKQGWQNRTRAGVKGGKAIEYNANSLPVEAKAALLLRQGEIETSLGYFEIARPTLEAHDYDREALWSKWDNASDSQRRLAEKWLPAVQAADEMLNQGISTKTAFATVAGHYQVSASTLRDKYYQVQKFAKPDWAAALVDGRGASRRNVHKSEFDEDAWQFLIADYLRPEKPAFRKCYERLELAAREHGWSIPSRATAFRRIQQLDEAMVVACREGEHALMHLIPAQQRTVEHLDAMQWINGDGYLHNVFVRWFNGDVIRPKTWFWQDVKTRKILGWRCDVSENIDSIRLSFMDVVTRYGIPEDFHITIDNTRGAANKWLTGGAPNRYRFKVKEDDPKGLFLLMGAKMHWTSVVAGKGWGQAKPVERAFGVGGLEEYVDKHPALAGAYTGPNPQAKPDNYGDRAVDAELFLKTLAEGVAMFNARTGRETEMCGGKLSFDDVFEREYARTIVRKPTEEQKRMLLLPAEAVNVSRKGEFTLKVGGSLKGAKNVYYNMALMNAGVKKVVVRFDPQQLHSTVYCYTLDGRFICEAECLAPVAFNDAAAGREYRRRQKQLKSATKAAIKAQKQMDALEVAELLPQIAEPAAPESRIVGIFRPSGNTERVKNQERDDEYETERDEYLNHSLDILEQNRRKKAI

Row | Binder | binding result (MuA transposase [1]) | binding result (MuA transposase [2])
1 | B1 | binds | –
2 | B2 | – | binds
